This is an account of results in patent US20250277196A1, “EPSPS MUTANTS AND METHOD OF ITS USES” (CROPEDIT BIOTECHNOLOGY INC., priority 2021, published 2025).

For assay [1], the system named is E. coli lacking EPSPS. In words: Resistance test of flax EPSPS V403A mutant and comparison with wild type (FIG. 4). Format: cell-based. Conditions: presence of 1 mM and 2 mM glyphosate. The protocol:
The flax (Linum usitatissimum) EPSPS mutant sequence(SEQ ID NO: 27) was synthesized and cloned into the pKED2 vector to obtain the vector LuVA. The vector LuWt was created after introducing A403V mutation by PCR.
(§1) a) PCR system: According to the primer and template mixed PCR system corresponding to the target vector in the above table, the forward primer was 1.25 μl, the reverse primer was 1.25 μl, the template plasmid was 2 μl, the Q5 PCR master mix was 12.5 μl, and ddH2O was […].
(§2) b) PCR reaction conditions were as follows: the annealing temperature was set according to the annealing temperature corresponding to the target carrier in the above table.
(§3) c) Took out 5 μl of the obtained PCR product and added it to the loading buffer for agarose gel electrophoresis. A band with a size of about 4.5 kb was considered successful.
d) Used NEB's KLD enzyme mixture to remove the template and then connected the PCR product. The connection system was 5 μl KLD buffer, 1 μl KLD MIX, 1 μl PCR product, and ddH2O 3 μl. After ligating at room temperature for 5 min, transformed it into E. coli.
e) The ligation product was transformed into Dh5a competent E. coli lacking EPSPS. After resuscitation, the cells were washed twice with M9 medium, and then the washed cells were spread on M9 medium and cultured for 48 h. […]

The subject of assay [2] is E. coli lacking EPSPS. The assay can be described thus: Resistance identification of flax EPSPS mutants LuGPV, LuTIPT, LuTIPTVA (FIG. 5, FIG. 6). Format: cell-based.
Source text: The G172 position and P177 position of LuVA were mutated into A and S at the same time by PCR, and a 3-point mutant LuGPV was obtained.
The T173 and P177 positions of LuWT were simultaneously mutated to I and T by PCR, and a […] mutant LuTIPT was obtained.
The T173 and P177 positions of LuVA were simultaneously mutated to I and T by PCR, and a 3-point mutant LuTIPTVA was obtained.
as §1, §2, §3
(§4) d) Used NEB's KLD enzyme mixture to remove the template and connected the PCR product. The connection system was 5 μl KLD buffer, 1 μl KLD MIX, 1 μl PCR product, and ddH2O 3 μl. After ligating at room temperature for 5 min, transformed it into E. coli.
(§5) e) The ligation product was transformed into Dh5a competent E. coli lacking EPSPS. After resuscitation, the cells were washed twice with M9 medium, and then the washed cells were spread on M9 medium and cultured for 48 h. Sequenced the grown single colony (Tsingke Biological Technology Co., Ltd.), and selected the correct mutant to save for future use.
The resistance results were shown in FIG. 5: LuWt(SEQ ID NO:26) represents the EPSPS2 gene of flax, LuGPV (SEQ ID NO:30) represents the flax G172A+P177S+V403A three-point mutant. The resistance results were shown in FIG. 6: LuTIPT (SEQ ID NO:28) was the flax T173I+[…] double-point mutants, LuTIPTVA (SEQ ID NO:29) was flax T173I+P177T+V403A three-point mutants.

Assay [3] has as its system E. coli lacking EPSPS. The assay can be described thus: Glyphosate resistance comparison among rice EPSPS mutants: growth of transformed E. coli on M9 medium with different glyphosate concentrations. It counts as cell-based, Escherichia coli. The settings on record: M9 medium; for glyphosate concentration of the medium on which the strain can grow: tested 0, 0.5, 2, 4, 5, 25, 75, 100 mM glyphosate, FIG. 2, FIG. 3. The method, then:
as §1
b) PCR reaction conditions were as following: the annealing temperature was set according to the annealing temperature corresponding to the target carrier in the above table.
as §3, §4, §5
OsWt represents the wild type rice EPSPS(SEQ ID NO:2). […] OsGA represents the mutated rice EPSPS with mutation G172A. (SEQ ID NO:7) OsPS represents the mutated rice EPSPS with mutation P177S. (SEQ ID NO:8) OsGAPS represents the mutated rice EPSPS with mutation G172A and P177S. (SEQ ID NO:9) OsGAVA represents the mutated rice EPSPS with mutation G172A and V403A(SEQ ID NO:4). OsPSVA represents the mutated rice EPSPS with mutation P177S and V403A(SEQ ID NO:5). OsGPV represents the mutated rice EPSPS with mutation G172A, P177S and V403A(SEQ ID NO:6). OsTIPS represents the mutated rice EPSPS with mutation T173I and P177S. (SEQ ID NO: 35). OsTIPT represents the mutated rice EPSPS with mutation T173I and P177T. (SEQ ID NO:36). OsTIPSVA represents the mutated rice EPSPS with mutation T173I, P177S and V403A. (SEQ ID NO:37). OsTIPTVA represents the mutated rice EPSPS with mutation T173I, P177T and V403A. (SEQ ID NO:38). CP4 represents the wild type EPSPS from Agrobacterium tumefaciens. (SEQ ID NO:39)
Each product obtained from the above steps were transformed into E. coli lacking EPSPS. By detecting the growth of the transformed Escherichia coli on M9 medium containing different glyphosate concentrations (0 mM, 0.5 mM, 2 mM, 4 mM, 5 mM, 25 mM, 75 mM, 100 mM), the 1 mM glyphosate here was equivalent to […] glyphosate acid, the glyphosate resistance of rice EPSPS mutants was verified.

In assay [4] the test system is Escherichia coli DH5α with EPSPS gene knocked out. The assay can be described thus: Resistance test of rice EPSPS mutants from error-prone PCR on OsGPV: colony growth on medium with 0, 100 mM and 125 mM glyphosate (FIG. 7). It counts as cell-based. Conditions: 125 mM glyphosate pressure, FIG. 7. The source says:
In order to further improve the glyphosate resistance and develop highly resistant rice EPSPS mutants that can meet commercial production requirements, we used OsGPV as a template to perform random mutations, with high-concentration glyphosate screening, and to identify EPSPS mutant that can improve the glyphosate resistance.
We used OsGPV(SEQ ID NO:6) as a template to perform error-prone PCR. (With GeneMorph II Random Mutagenesis Kit, #200550, Agilent Technologies).
a) The recovered product was digested with EcoRI and SbfI, and then ligated to the pKED2 vector after the same double digestion with T4 DNA ligase to obtain the ligation product to obtain the vector carrying the rice EPSPS gene mutant.
b) Transformed the above vector into Escherichia coli DH5α with EPSPS gene knocked out. The transformation steps were as follows: add the above ligation product to 50 μl E. coli DH5α competent cells with EPSPS gene knocked out, mix well and incubate on ice for 30 min, then after a heat shock at 42° C. for 90 s, immediately place it in an ice bath on ice for 2 min after taking it out. After the ice bath, add 500 μl of LB liquid medium and resuscitate at 37° C. at 180 r/min for 45 min. The transformed Escherichia coli was a mutant library expressing rice EPSPS mutant genes obtained on the template basis of OsGPV.
5) Centrifuged the transformed product obtained above at 3000 rpm for 5 min, discarded the supernatant, then resuspended it in 1 ml M9 liquid medium, added 200 μl M9 liquid medium to resuspend and inoculated it on an M9 plate containing 75 mM glyphosate. Incubated at 37 degrees for 24 hours.
Pick and saved the single colonies grown in the above screening plates, and conduct further resistance identification and sequencing
ii. Resistance test of rice mutants. In this example, the wild-type rice EPSPS gene OsWT, the most widely used commercial glyphosate-resistant gene CP4EPSPS, the rice mutantOsTIPS, which had the same mutation type with commercial glyphosate-resistant corn GA21, and the rice mutant OsGPV with the highly glyphosate-resistant rice EPSPS mutant gene obtained in this study were transformed as control, and the newly obtained rice EPSPS mutants were transformed as the experimental group, and the glyphosate resistance among the control and the mutants were compared. The monoclonal bacteria of the control group and the experimental group were respectively inoculated into a medium containing 0, 100 mM and 125 mM glyphosate, and the growth of colonies in each group was observed.

Substitutions are numbered along the chain they refer to. Names and notes keep the numbering of the source. Values joined by “and” are separate entries in the source; they are usually repeats but may differ in a detail not shown here. Identical values can stand only once.

B1: LuVA (protein)
DNA: MTVPEEIVLQPIKDISGIVTLPGSKSLSNRILLLAALSEGKTVVDNLLNSDDVHYMLGALKTLGLNVEHSSEQKRAIVEGRGGVFPVGKLGKNDIELFLGNAGTAMRPLTAAVTAAGGNSSYILDGVPRMRERPIGDLVVGLKQLGADVSCSSTSCPPVHVNAKGGLPGGKVKLSGSISSQYLTALLMAAPLALGDVEIEIVDKLISVPYVDMTLKLMERFGVAVEHSGSWDRFFVKGGQKYKSPGNAYVEGDASSASYFLAGAAITGGTITVEGCGTSSLQGDVKFAEVLEKMGAKVTWTETSVTVTGPPRDASGKKHLRAVDVNMNKMPDAAMTLAVVALYADGPTAIRDVASWRVKETERMIAVCTELRKLGATVEEGPDYCIITPPEKLSIAEIDTYDDHRMAMAFSLAACADVPVTIRDPGCTKKTFPDYFEVLERYTKH
modifications: This sequence is synthesized in lab.
Consider B1, for which, in assay [1], the “growth status compared with LuWt” value was “significantly better than that of LuWt”.

B2: LuGPV (protein)
DNA: B1 DNA with G103A, P108S
modifications: This sequence is synthesized in lab.
Turning to B2, the “resistance compared with CP4 (colony saturation)” value in assay [2] (100 mM glyphosate pressure) is “higher than CP4”. Further, the glyphosate resistance entry in assay [2] (flax EPSPS mutant in E. coli, FIG. 5) is given as “strong glyphosate resistance”.

B3: LuTIPTVA (protein)
DNA: B1 DNA with T104I, P108T
modifications: This sequence is synthesized in lab.
Take B3: the “resistance compared with LuTIPT” value in assay [2] (FIG. 6) was “higher than that of LuTIPT”.

B4: OsGAPS (protein)
chain: MAAKAEEIVLQPIREISGAVQLPGSKSLSNRILLLSALSEGTTVVDNLLNSEDVHYMLEALKALGLSVEADKVAKRAVVVGCGGKFPVEKDAKEEVQLFLGNAATAMRSLTAAVTAAGGNATYVLDGVPRMRERPIGDLVVGLKQLGADVDCFLGTECPPVRVKGIGGLPGGKVKLSGSISSQYLSALLMAAPLALGDVEIEIIDKLISIPYVEMTLRLMERFGVKAEHSDSWDRFYIKGGQKYKSPGNAYVEGDASSASYFLAGAAITGGTVTVQGCGTTSLQGDVKFAEVLEMMGAKVTWTDTSVTVTGPPREPYGKKHLKAVDVNMNKMPDVAMTLAVVALFADGPTAIRDVASWRVKETERMVAIRTELTKLGASVEEGPDYCIITPPEKLNITAIDTYDDHRMAMAFSLAACADVPVTIRDPGCTRKTFPNYFDVLSTFVRN
modifications: This sequence is synthesized in lab.
As to B4, the “growth on medium containing 0 mM glyphosate” value in assay [3] (0 mM glyphosate, complementation of E. coli EPSPS function) is “cannot grow”.

B5: OsWt: wild type rice EPSPS (SEQ ID NO:2), chloroplast transit peptide removed (protein)
chain: B4 chain with A104G, S109P
modifications: This sequence is synthesized in lab.
For the molecule B5, the “growth on 0.5 mM glyphosate medium” value in assay [3] is “cannot grow”.

B6: OsTIPTVA (protein)
chain: B4 chain with A104G, T105I, S109T, V335A
modifications: This sequence is synthesized in lab.
Turning to B6, the “glyphosate concentration of the medium on which the strain can grow” value (shortened to “glyphosate concentration of the medium”) in assay [3] is 100 mM and 75 mM.

B7: OsPSVA (protein)
chain: B4 chain with A103G, V335A
modifications: This sequence is synthesized in lab.
Turning to B7, the “glyphosate concentration of the medium” value in assay [3] is given as at most 4 mM.

B8: OsPS (protein)
chain: B4 chain with A104G
modifications: This sequence is synthesized in lab.
For B8, the “growth on 0.5 mM glyphosate medium” value in assay [3] is on record as “can grow”.

B9: 1-547: rice EPSPS with E137D, G172A, P177S, L253M and V403A mutations (protein)
chain: B4 chain with E69D, L185M, V335A
modifications: This sequence is synthesized in lab.
notes: rice EPSPS with E137D, G172A, P177S, L253M and V403A mutations
In the case of B9, the “colony growth status compared with OsGPV” value in assay [4] is reported as “significantly higher than OsGPV”.

B10: OsGAVA (protein)
chain: B4 chain with S109P, V335A
modifications: This sequence is synthesized in lab.
For the molecule B10, the “glyphosate concentration of the medium” value in assay [3] is reported as at most 75 mM.

B11: OsGA (protein)
chain: B4 chain with S109P
modifications: This sequence is synthesized in lab.
For the molecule B11, the “growth on 0.5 mM glyphosate medium” value in assay [3] is recorded as “can grow”.
